These results are taken from the DeepSol protein solubility set.

The nature of the data set: soluble on expression in E. coli; label from the status in PepcDB or PDB records.
Turning to “MGSDKIHHHHHHMDSLLMNRRKFLYQFKNVRWAKGRRETYLCYVVKRRDSATSFSLDFGYLRNKNGCHVELLFLRYISDWDLDPGRCYRVTWFTSWSPCYDCARHVADFLRGNPNLSLRIFTARLYFCEDRKAEPEGLRRLHRAGVQIAIMTFKDYFYCWNTFVENHERTFKAWEGLHENSVRLSRQLRRILLPLYEVDDLRDAFRTLGL”, the “soluble on expression in E. coli” value is recorded as “not soluble”.

With “MGSDKIHHHHHHMDSYKQYIKEALPNLSIHSYKQNEEGWDNVAIIVNDELLFRFPRKQEYAMRIPLEKELCTLLSCSLHEIEVPKYHLFYEKNTDAIPLCSYYTLIHGEPLKTEIVTTLEKQERKALITQLATFLAALHSIPLKSVTALGFPIEKTLTYWKELQAKLNEYVTNSLTSFQKSTLNRLFENFFACLATSKFQNTIIHADFTHHHILFDKQNKTISGVIDFGDAQIGDPAFDFAGLYYDFGHEFTTSVYEQYSTLTSHHDPLLIHRITSFYQYSPLLHNMIYNFETKNELEFLASIEQLKVILQG”, the “soluble on expression in E. coli” value was “not soluble”.

For the sequence “MGSDKIHHHHHHMDTRKNVSGAERKIWSLIRDCSGKLEGVTETSVLEVLLIVSRVLGIRKEDLFLKDLGVSPTEEKRILELVEKRASGYPLHYILGEKEFMGLSFLVEEGVFVPRPETEELVELALELIRKYGIKTVADIGTGSGAIGVSVAKFSDAIVFATDVSSKAVEIARKNAERHGVSDRFFVRKGEFLEPFKEKFASIEMILSNPPYVKSSAHLPKDVLFEPPEALFGGEDGLDFYREFFGRYDTSGKIVLMEIGEDQVEELKKIVSDTVFLKDSAGKYRFLLLNRRSS”, the “soluble on expression in E. coli” value is given as “soluble”.

For “MGSDKIHHHHHHMDVFSDRVLLTEESPIRKLVPFAEMAKKRGVRIHHLNIGQPDLKTPEVFFERIYENKPEVVYYSHSAGIWELREAFASYYKRRQRVDVKPENVLVTNGGSEAILFSFAVIANPGDEILVLEPFYANYNAFAKIAGVKLIPVTRRMEEGFAIPQNLESFINERTKGIVLSNPCNPTGVVYGKDEMRYLVEIAERHGLFLIVDEVYSEIVFRGEFASALSIESDKVVVIDSVSKKFSACGARVGCLITRNEELISHAMKLAQGRLAPPLLEQIGSVGLLNLDDSFFDFVRETYRERVETVLKKLEEHGLKRFTKPSGAFYITAELPVEDAEEFARWMLTDFNMDGETTMVAPLRGFYLTPGLGKKEIRIACVLEKDLLSRAIDVLMEGLKMFCSSRISC”, the “soluble on expression in E. coli” value was “soluble”.

As for “MGSDKIHHHHHHMDVVLHIGAHRTASSALQHHLSRNRSKLAEAGVVYWGPKITRGGLFRGAIGGVEGALPWQERRFGKRCALRAEAVRQTGATHLMISDENMVGSLRGALEFTRLYSDAGRRIASYAHGFKTHRMTVALCIRDYADWWVSAMAFRLPRGGPLPRTQARERLVTQPRRWRHVVEDLAQALPDARLVVWSYEASAHALPTLVGDLTGVASADDRAGPRNLRPTAADLHDLMDACDIDPDMFHWPDGQFMPFTVHETEALRAQYQEDLAWLRAGARGFADYIDAPSAQTEAPTDLGRGNPDDGEHRQLA”, the “soluble on expression in E. coli” value is recorded as “not soluble”.

“MGSDKIHHHHHHMDWGIYMKQLPFKAVAVDVDGTFENDKKEYDHEMFGEILYRLHKHGAHFIIASGRPAGRLSDDFGDFIDSVDFVADNGAVLVRDGKIIRTTCFSKKGILHLIDYMHQRYPGSVTTLLISGVKHSYFLKSTPPEFKRSHHYFYPNSIEIDDFSQIPADDQYTKITVDYPSKVRHELEYGFNSRSMEKIHVTTSGWNYMDIIPQGVNKATGLKEFLAYLDVPRSELIAFGDGENDIEMLKLAGLSYAMENGQNSVKKIANFIAPSNNDNGVFKVLNHYLNEVNK”: the “soluble on expression in E. coli” value was “not soluble”.

For the sequence “MGSDKIHHHHHHMEAKKSKAIVFSGVNQIELREVTLKPVSSTDVLVETWWSSISTGTEKMALNGLIPSPPFIFPFIPGYETVGRIVEAGDHVNQGLIGKFAYVAGSFGYEDVNAAFGGASQFIVCPVESLTVLDGIANPQCGIALPLGATALHIVDLAEVKNRKVLVLGQGAVGILAAELAKRFGASLVAVTEPHQRRLDISTSDIKVNPEKQDVSVALAGHEFDVLIDSTGIMSAIETGLRFLKFHGKVIFGGYYQRMNIDYSQAFNKELSFIAARQWAKGDLHRVRELIAAGKINAEKIFTHQCTVDDNLMEAYMQAFSDSDCLKMIIHWKHGNEAGEHFPTCNTAN”, the “soluble on expression in E. coli” value is on record as “not soluble”.

On to “MGSDKIHHHHHHMEAQDHNNEQQVTEYQVMSYLRAHPQFFEHHTGLLAELYLPSPHGQGTVSLAERQQLAQRDRIRVLDAKLAQLMKYGEENDAIGEKVHRLSLGLLATERMEVLVSLLEHSLHEDFQVPYVSLRLWAKPRESGNGSLPIFASVDQELQRWAQGLATPYCGNRPGMPLQGWFGVEARPASFAVMALKAQQVFGVLALASDDDKRFYPDMGTLYLKRISELISAALLRHIIV”, for which the “soluble on expression in E. coli” value is “not soluble”.

As for “MGSDKIHHHHHHMEGHIVITGATGVIGSEVARRLIKSGREVVVFARSPQSAAAKVPGAADYVRWDSDMAPDGWSSSIDGAYAVIHLAGRPLLETRWTEEHKVACYDSRIKGTRALVAAMASASVKPKVFVSSSAIGYYGSFDRCEETDPLTEKAAPGKDFLAKICFDWEKEARPAETLGTRVVLLRTGIVLSTKGGMLQKMMIPFSYFVGGPVGSGDQCLSWIHLDDEVSIILQALDNADWSGPVNAVAPEPVSMKAFADSLGLVMHRPSLFPVPKLAVQILLGEGADYAVKGQKVSPEFLKERDFHFAWPSLNEALADLVSRGI”, the “soluble on expression in E. coli” value is recorded as “not soluble”.

As for “MGSDKIHHHHHHMEHECDTLPHWLTGSPQGEAGHTPAACNSAVAAQPAYPAGTRQPEKSAHAAEASRAHDRTATGVAPTGFLTLFTEEEIGTPSPAARRAAPVISPLVRFGSAQDRIEFVRQRIRQLGFDSFSYSATRTSAHHKTMFVLTSYESRSWLTRYFRERYFELDPRVALASPTGLPFLWNTADMRADLPRAQMRSERLGGLIDMLEATGRKSGILTQMPLPEPELSASLCFNSETGNPRWMTESIVAETLMFAHMIHEFIWTHAKSVIGIAPAQQQRVTLSELQHAVLRAVVQGQRDKEIAYFLGLSPHNVDYHLRRLRQLFNVRNRVQLINVAQAYVS”, the “soluble on expression in E. coli” value is “not soluble”.

“MGSDKIHHHHHHMEIAVLGGGNGSTAAAVDLTAQGHNIRFWRRNASAQAELKARGNVITLKDFEGARPIRITMVTDDIGEAIRGAELIVCPTPATAQSDIAAAMAPHLADGQVVFLPPGSFGSWIMADIVRKAGNHADVSWAETGTLPYLTRLHGADTVAITTRATRLPTGVYPLRNAEHAHSVLARAYPAVEPAGDALSGALMNAGPIIHPPLITMNAGPIEHFDHWDIHNEGTQPAIRRVTTRLDAERMAVREALGYGAPHFPLADHYETSDWMYGNLAHDKLVDSGDWREHLVLTEHRYMREDVAVGLALLVSVADWAGVPAPTATGLLALGSAICDDDFRQSGRTLENLGLADMDRAALQTMLRDGA”: the “soluble on expression in E. coli” value is “not soluble”.

For the sequence “MGSDKIHHHHHHMEIGIIGTGNIGGTLARKLIAAGHQVRVANSKGIHGVQSFADEIGATAVDVYGAVKGADAIILSIPLPALASLPNGFFDDLPETVPLIDTSNYYPGLRDPLIPEIDDGMTESVWVSQQLSHPVIKAFNNILAWSLAELGTPKGSASRLAIAVAGDNATLKQIVMNLVDDTGFDAIDAGSLEESWRQQPSTPAYCCDYDAETMKKGLTAAVRGEAASKRDRLPELFGKLGANPTHEDIVAMNRSLNP”, the “soluble on expression in E. coli” value is on record as “not soluble”.

“MGSDKIHHHHHHMEIIAHRGFWNKESEKNTLTAIKRAIDNGYGFETDYRDNNGTIVISHNMPLGNEPTAEEIFRLYRDSGTESTLALNIKADGLQELLKDMLNTYQIKKYFLFDMSIPDTIDYILDNMNIATRHSEYEKEFPFYSQSSYVWMDCFKSEWISWGNLEEHLKSGKKVCIVSPELHRRPYKEVWNKYASFNHANLMLCTDFPMEADFFFNK”: the “soluble on expression in E. coli” value is “not soluble”.

Turning to “MGSDKIHHHHHHMEIKGKVHYVGVNDRNKALFENLWPLPYGVSYNSYLIDDEMVALVDTVDVCYFEVYLKKIRSIIGDKPINYLIINHMEPDHSGSISLIKQYYPNIVIVGNKKTFEMIEGYYGVGGERYVVGEGDFLALGHHRLRFSLIPMVHWPETMVTFDETEGILFSGDAFGCFGALNGGVVDTNINTDIYWNEMVRYYSNIVGKYGAPVQKALQKLQNLKITTVCSTHGPVWTEEIPRVVRIYDRLSRYEAEEGVVIAYGSMYGNTEEVAEAIAEELSKQGIRNIVMHNVSHTSHSFIIADVFKYKGLIVGCPTYNTQMYPEMEALLSKLASREIKGRYLGYFGSFTWASAAVKKIAEFNDKLKFEPVGNPVEMKHSMKAETNTQAKELAKAMADRLKADRK”, the “soluble on expression in E. coli” value was “not soluble”.
